Laboratory results reported in article PMC7299998, “Recombinant Bri3 BRICHOS domain is a molecular chaperone with effect against amyloid formation and non-fibrillar protein aggregation” (Scientific Reports, 2020).

T1: citrate synthase (CS) from porcine heart (porcine, UniProt P00889 28-464)
T1 construct: citrate synthase, mitochondrial, from porcine heart; Used native (fresh) or partly heat-denatured (2 h at 45 °C); the assays tell the two states apart; source: bought: Sigma-Aldrich (from porcine heart)
T1 sequence (looked up): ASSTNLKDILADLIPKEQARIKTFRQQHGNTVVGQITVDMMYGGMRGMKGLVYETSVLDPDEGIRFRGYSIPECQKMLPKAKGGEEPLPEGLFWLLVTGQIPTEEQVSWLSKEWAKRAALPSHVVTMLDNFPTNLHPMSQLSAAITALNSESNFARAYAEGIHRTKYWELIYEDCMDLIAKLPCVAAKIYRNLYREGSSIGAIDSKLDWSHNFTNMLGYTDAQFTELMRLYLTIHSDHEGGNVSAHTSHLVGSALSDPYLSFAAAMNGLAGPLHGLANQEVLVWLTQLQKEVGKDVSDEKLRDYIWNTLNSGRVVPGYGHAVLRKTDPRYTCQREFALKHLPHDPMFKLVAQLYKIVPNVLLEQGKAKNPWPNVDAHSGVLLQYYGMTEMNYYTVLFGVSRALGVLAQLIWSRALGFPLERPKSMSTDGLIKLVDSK

B1: recombinant human (rh) Bri3 BRICHOS domain (domain or fragment, UniProt Q9NQX7 112-230, looked up)
chain: MELEEDVKIYLDENYERINVPVPQFGGGDPADIIHDFQRGLTAYHDISLDKCYVIELNTTIVLPPRNFWELLMNVKRGTYLPQTYIIQEEMVVTEHVSDKEALGSFIYHLCNGKDTYRL
notes: Bri3, human, residues 112-230 (BRICHOS domain); Bri3 is a 267-residue protein; Mainly high molecular weight oligomers, partly held by disulfide bonds; Calculated monomer mass 17.3 kDa with the S tag; Vector pET-32c(+); also called Bri3(112-230); rh (S-tag) Bri3 BRICHOS; source: E. coli Shuffle T7, purified (Ni-Sepharose from 2 M urea extract, thrombin cleavage, second Ni-Sepharose); not shown: …
B2: recombinant human (rh) Bri2 BRICHOS domain (domain or fragment, UniProt Q9Y287 90-236, looked up)
chain: GIKYIKDDVILNEPSADAPAALYQTIEENIKIFEEEEVEFISVPVPEFADSDPANIVHDFNKKLTAYLDLNLDKCYVIPLNTSIVMPPRNLLELLINIKAGTYLPQSYLIHEHMVITDRIENIDHLGFFIYRLCHDKETYKLQRRET
notes: Bri2 (ITM2B), human, residues 90-236 (linker part and BRICHOS domain); The modelled and aligned Bri2 BRICHOS is 113-231; the expressed construct is 90-236; Vector pET-32c(+); also called Bri2(90-236); source: E. coli Shuffle T7, purified (Ni-Sepharose from 2 M urea extract, thrombin cleavage, second Ni-Sepharose); not shown: Trx, N-terminal, cleaved; His6, N-terminal, cleaved; S tag, N-terminal, …

How the values were obtained:
[1] = target: T1, citrate synthase (CS) from porcine heart; assay: SEC; supernatant of CS:rh Bri3 BRICHOS 1:2 molar ratio after 2 h at 45 °C and centrifugation; Superose 6, 20 mM ammonium acetate pH 8.0, 0.7 ml/min; peak fractions by reducing SDS-PAGE; conditions: both partners purified
[2] = target: the molecule itself; assay: SEC; rh BRICHOS alone on Superose 6 10/300 GL, 0.5 ml/min, 20 mM PB, 0.2 mM EDTA pH 8.0 or 20 mM ammonium acetate pH 8.0; hydrodynamic diameter by comparison with standards
[3] = target: the molecule itself; assay: negative-stain transmission electron microscopy; oligomers isolated by SEC (Superose 6, 20 mM ammonium acetate pH 8.0), uranyl acetate stain, reference-free 2D classification, Feret's diameters

Binder	binding result [1]	binding result [2]	binding result [3]
B1	binds	binds	–
B2	–	–	binds
